The assay deals with C-terminal NanoLuc luciferase fragment, residues 66–171 (66C), bacterial construct. As to the kind of experiment: split reporter.

Fold increase in luminescence over 66C alone data for 1 substance are collected here from PMC5110118.

In turn, “N-terminal NanoLuc luciferase fragment, residues 1–65 (N65), bacterial construct (domain or fragment)” registered a fold increase in luminescence over 66C alone of 10 fold.
